Values quoted from earlier work as cited in PMC10366146.

Molecular target: VEGFR2 (Homo sapiens) (UniProt P35968)
UniProt P35968, sequence (P35968 20-1356): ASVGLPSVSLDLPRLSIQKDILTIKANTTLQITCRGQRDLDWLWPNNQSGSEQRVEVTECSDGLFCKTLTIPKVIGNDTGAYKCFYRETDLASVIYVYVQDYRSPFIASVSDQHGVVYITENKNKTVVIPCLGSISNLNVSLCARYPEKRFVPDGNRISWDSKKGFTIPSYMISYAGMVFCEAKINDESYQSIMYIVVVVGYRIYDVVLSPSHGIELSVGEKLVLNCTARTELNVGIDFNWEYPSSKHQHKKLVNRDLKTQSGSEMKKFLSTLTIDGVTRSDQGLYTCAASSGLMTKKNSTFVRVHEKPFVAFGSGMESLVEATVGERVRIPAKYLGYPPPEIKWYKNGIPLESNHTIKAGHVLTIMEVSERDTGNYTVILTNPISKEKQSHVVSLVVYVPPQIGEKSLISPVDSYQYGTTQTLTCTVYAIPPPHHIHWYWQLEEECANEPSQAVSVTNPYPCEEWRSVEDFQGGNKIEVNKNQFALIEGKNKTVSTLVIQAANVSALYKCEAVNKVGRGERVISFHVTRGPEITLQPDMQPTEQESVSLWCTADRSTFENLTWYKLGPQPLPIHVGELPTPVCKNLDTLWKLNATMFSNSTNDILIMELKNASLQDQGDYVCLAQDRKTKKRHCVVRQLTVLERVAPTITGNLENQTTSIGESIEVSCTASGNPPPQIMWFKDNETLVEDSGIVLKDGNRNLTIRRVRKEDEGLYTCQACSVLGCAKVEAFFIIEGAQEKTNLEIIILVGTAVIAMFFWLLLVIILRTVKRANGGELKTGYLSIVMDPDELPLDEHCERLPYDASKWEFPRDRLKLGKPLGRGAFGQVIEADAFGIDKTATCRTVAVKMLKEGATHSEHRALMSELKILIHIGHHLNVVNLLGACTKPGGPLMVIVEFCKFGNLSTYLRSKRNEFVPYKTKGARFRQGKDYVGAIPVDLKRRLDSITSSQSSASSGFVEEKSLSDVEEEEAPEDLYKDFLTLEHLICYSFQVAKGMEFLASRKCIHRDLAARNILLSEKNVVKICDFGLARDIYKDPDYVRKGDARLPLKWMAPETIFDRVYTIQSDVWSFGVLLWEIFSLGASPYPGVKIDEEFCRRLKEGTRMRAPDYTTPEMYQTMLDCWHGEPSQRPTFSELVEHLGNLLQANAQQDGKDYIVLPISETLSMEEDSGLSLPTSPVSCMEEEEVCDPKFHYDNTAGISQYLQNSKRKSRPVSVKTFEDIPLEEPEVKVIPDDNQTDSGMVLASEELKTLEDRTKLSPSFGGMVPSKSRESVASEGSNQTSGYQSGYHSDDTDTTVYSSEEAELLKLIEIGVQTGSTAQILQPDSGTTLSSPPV

- Kd: 5.5 nM
Substance: VEGF121 VEGF121 (from UniProt P15692)
